Key:
ASF/SF2 (Homo sapiens) = ASF/SF2 (Homo sapiens) (UniProt Q07955); conditions: cited from earlier work
[1] = molecular target: Cp183 dimer (HBV core protein, free dimer) (Hepatitis B virus) (UniProt P03147); assay: SEC; 5.3 µM Cp183 dimer alone or mixed with 11.2 µM SRPKΔ in disassembly buffer, dialysed overnight against reassembly buffer (0.25 M NaCl, 10 mM DTT, 20 mM Tris-HCl pH 7.4); Superose 6; fractions by SDS-PAGE
UniProt P03147, sequence (P03147 whole entry): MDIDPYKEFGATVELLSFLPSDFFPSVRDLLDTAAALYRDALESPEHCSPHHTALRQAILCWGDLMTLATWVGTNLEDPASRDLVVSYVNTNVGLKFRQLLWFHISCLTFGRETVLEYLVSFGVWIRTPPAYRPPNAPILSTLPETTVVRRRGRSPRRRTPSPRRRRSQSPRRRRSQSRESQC

UniProt Q07955, sequence (Q07955 2-248): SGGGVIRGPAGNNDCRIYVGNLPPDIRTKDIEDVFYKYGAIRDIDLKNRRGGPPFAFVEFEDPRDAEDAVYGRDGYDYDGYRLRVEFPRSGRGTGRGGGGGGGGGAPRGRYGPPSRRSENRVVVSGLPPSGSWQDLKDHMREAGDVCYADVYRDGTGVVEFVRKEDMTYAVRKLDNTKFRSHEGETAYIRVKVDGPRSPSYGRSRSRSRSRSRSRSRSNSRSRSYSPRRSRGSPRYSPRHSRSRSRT

Substance | Kd (ASF/SF2 (Homo sapiens)) [nM] | stoichiometry N (SRPKΔ per Cp183 dimer) [1]
SRPK1 (from UniProt Q96SB4) | 50 | 
SRPK1ΔN1S1 (truncated Serine Arginine protein kinase 1) (from UniProt Q96SB4 1-655) (enzyme) |  | > 1

— article PMC3219723
